± gives the uncertainty stated by the source.
Assay: protein stability index of a GFP-peptide fusion (yeast GPS) (PSI 1-4); higher = more stable; sorted into four equal gates, so the index is relative within each strain
In short: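 Peptides tiling yeast proteins in 17-residue segments were fused downstream of GFP, with Cherry expressed from the same plasmid. As a pooled library in yeast, mid-log cultures grown in leucine-free medium were sorted into four equal gates by GFP/Cherry fluorescence ratio. Gate plasmids were PCR-amplified and Illumina-sequenced, and barcodes linked reads to strains. Each peptide received a protein stability index equal to the sum of each gate's read frequency times its gate number.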

Sequence | protein stability index (san1∆) | protein stability index (doa10∆) | protein stability index (pdr5∆) | protein stability index (ubr1∆)
ENGDYAACEKLLPPIKI [RPN12] | 1.89 ± 0.21 | – | – | –
KKLPRKTHRGLRKVACI [RPL3] | 2.65 ± 0.064 | 1.61 ± 0.062 | 3.5 ± 0.098 | 3.23 ± 0.058
DSRKNREQSSNDSETHT [BRN1] | 3.34 ± 0.11 | 3.68 ± 0.17 | 3.34 ± 0.19 | 3.52 ± 0.14
RLWLKKVMEEEEQDCKC [POP8] | 3.07 ± 0.079 | 2.5 ± 0.095 | 2.9 ± 0.084 | 2.8 ± 0.083
KLEPKEIVRDILHTKES [SIR4] | 2.5 ± 0.18 | 2.92 ± 0.1 | 3.1 ± 0.14 | 3.04 ± 0.086
RADVEDESNDIDMIADE [RPC37] | 2.8 ± 0.08 | 2.95 ± 0.073 | 2.72 ± 0.057 | 3.27 ± 0.066
SPVQIAFNRFMAESLVD [SSN8] | 1.63 ± 0.11 | 1.52 ± 0.043 | 1.97 ± 0.045 | 1.52 ± 0.044
KSNSTGNISSSTVKKKD [REC8] | 2.83 ± 0.039 | 2.96 ± 0.058 | 2.96 ± 0.058 | 3.02 ± 0.049
MSDLFTFDWFIKTRTVH [ISW2] | 2.76 ± 0.093 | 2.88 ± 0.099 | 3.17 ± 0.099 | 3.21 ± 0.072
VELTYSLNNSDSLISGV [BRR2] | 3.14 ± 0.088 | 2.73 ± 0.12 | 2.98 ± 0.085 | 3.12 ± 0.051
SSLEARYFFYLSKINAI [RPN3] | 1.95 ± 0.1 | 1.74 ± 0.05 | 2.17 ± 0.064 | 1.75 ± 0.042
RKYEISFGKIYVTKPMV [RPB2] | 1.88 ± 0.19 | 1.95 ± 0.092 | 2.44 ± 0.21 | 2.16 ± 0.11
EDFLHFIVAEYIQQKKV [SRB4] | 2.28 ± 0.1 | 2.57 ± 0.1 | 2.79 ± 0.078 | 2.9 ± 0.067
LSGKFSTIPTRENGKGG [ROX3] | 3.01 ± 0.063 | 3.28 ± 0.23 | 3.22 ± 0.11 | 3.1 ± 0.23
AADVSAVDAKQLAQIRQ [YML103C/NUP188] | 3.25 ± 0.072 | 2.25 ± 0.071 | 2.94 ± 0.073 | 2.5 ± 0.057
VPDSKIRIYDLGKKKAT [RPL10] | 1.15 ± 0.13 | 1.24 ± 0.076 | 1.35 ± 0.071 | 1.05 ± 0.056
HFVRDLGTIESAQAETE [DIS3] | 2.85 ± 0.21 | 2.16 ± 0.26 | 2.42 ± 0.13 | 2.49 ± 0.095
RFEVINNETEQLKAEEK [SMC1] | 3.05 ± 0.13 | 1.72 ± 0.08 | 2.06 ± 0.092 | 2.6 ± 0.12
LLVERLKEDDSSLYEAS [RPN1] | 3.06 ± 0.1 | 3.22 ± 0.12 | 3.38 ± 0.12 | 3.16 ± 0.18
ALFFDPSLNPIPHFIDN [PRP8] | 2.47 ± 0.057 | 2.64 ± 0.058 | 2.77 ± 0.047 | 2.61 ± 0.04
GRVKYTKRQKHFAWLPT [POP1] | 2.3 ± 0.084 | 2.27 ± 0.051 | 2.48 ± 0.081 | 2.55 ± 0.039
LKTVIILSSLYLLSIWV [CYT1] | 1.24 ± 0.15 | 2.12 ± 0.11 | 1.45 ± 0.092 | 1.17 ± 0.056
TAKKDMSSTTPKLESVK [SNF12] | 3.1 ± 0.042 | 3.31 ± 0.056 | 3.35 ± 0.05 | 3.27 ± 0.04
DPIWQHQSLGPDGLGEV [RET1] | 3.04 ± 0.11 | 2.96 ± 0.11 | 3.13 ± 0.11 | 3.35 ± 0.15
MTTTIGSPQMLANEERL [RGR1] | – | – | – | 2.63 ± 0.25
LIKAKNFLVFQGDVEQI [SMC1] | 2.41 ± 0.17 | 2.63 ± 0.19 | 3.15 ± 0.12 | 2.76 ± 0.23
TSGTNIAGTFNVGKPDQ [YOR098C/NUP1] | 3.27 ± 0.079 | 3.22 ± 0.088 | 3.01 ± 0.11 | 3.21 ± 0.1
KAEKKVELHGKRKLDIG [PRP8] | 3.13 ± 0.16 | – | 2.8 ± 0.17 | –
